Laboratory results reported in publication PMC6308570.

Biological target: thrombin (UniProt P00734;P00734 328-363;364-622)
Experiment: etched fiber Bragg grating biosensor (immobilized aptamer); thrombin 10, 20, 40, 80 nM; 5 mM MgCl2; Affinity buffer 50 mM Tris-HCl pH 7.4, 250 mM NaCl, 5 mM MgCl2; 2 h incubation; surface blocked with 1% BSA; temperature not stated

**Q.** Does TTTTTAGTCCGTGGTAGGGCAGGTTGGGGTGACT (ssDNA, 5' amino C6 (AmC6F)) [amine-modified thrombin binding aptamer (29-mer with T5 spacer)] bind?
**A.** binds
